In patent US20250051821:
Positions count from the first letter of the chain named.

T1: IFF05588
T1 chain: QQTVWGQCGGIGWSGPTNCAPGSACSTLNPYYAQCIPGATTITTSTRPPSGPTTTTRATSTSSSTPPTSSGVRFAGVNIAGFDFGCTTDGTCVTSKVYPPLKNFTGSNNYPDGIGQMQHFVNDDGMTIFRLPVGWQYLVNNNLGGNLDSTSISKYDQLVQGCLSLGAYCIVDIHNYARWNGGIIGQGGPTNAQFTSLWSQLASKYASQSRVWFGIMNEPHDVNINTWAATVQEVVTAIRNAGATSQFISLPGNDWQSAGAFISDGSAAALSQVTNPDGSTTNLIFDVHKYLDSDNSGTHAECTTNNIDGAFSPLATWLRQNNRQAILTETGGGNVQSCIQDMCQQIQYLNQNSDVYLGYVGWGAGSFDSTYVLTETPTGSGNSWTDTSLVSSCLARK

B1: IFF21378 (protein)
chain: LDKPALTPDLDYLLDGNTANLPQNGGAHWGKWEDGLMPEDCKSIAEGQDLNPADFEVYDVFYDDCQDAWSFCRHKDSPEDLETLVNTFGRVPVRMRSWVRHVLSIPGNNWAFNSNGNIALSGTTTHNLDVCLHETGHSLDLLGAYVDGALSSTQEWEDAYNKDSAVPDNYARTNQVENVAQNTVVGIYDKVVPGGFPGVQSESQKIENQYKLLQDKAGEQILPGGTCDRHLQNSATVSIKSSSKRENKVVKAREAHDSALKGTYTNIVKEFTPFNTKDFHEEH
B2: IFF21352 (protein)
chain: NLNKPVIQPNFPSLAPGLMSHLSPTHSTWDDWGAGWIPRDCKSMVQGAGFSPNDIIPFNIHYDDCGQTWTFCRHKKSPLSELQILDMFGRLPVRMRSFIRHMVFVPGTRSAGSNGDNILVVGDGDITLFAHEIGHSLDSHAFDPSYGVPFSTGNVWVSNYNLDSAVSDSYAQSSQQENFAQETVISLFDKVVPGGIGTIQPNWRAIFHQYATLQGYIGNVIIPGGTCTHRLTDSPPVPMSGSAKSRRGLGLKPDVSLTPEVKEIEAIPMESSITMTSFNEQGKPSGTYVIHLK
B3: IFF21380 (protein)
chain: QQLDKPALTNDLDYLLEGNVNNLPSNGGPYWGKWEAGLMPADCKSIAESQDLDPTDFEVWDIFFDDCQDGWSFCRHVDSADSFETLVDTFGRIPVRMRSWIRHILTIPGDNWAFNSNGNIAFSGTTSANLDVALHETGHSLDLLGAYGSEALSSTQEWLDAYDADSNVPDNYARSNQVENVAQNTVVGIYDKVVPGGFPGVQPNYQNIENQYTLLQDKAGDQIIPGGTCDRHLENSETVSASGSSKKARDSVNKKSRAVAHDPAFKGTYTNIVKDFVPFNTQDYHH
B4: IFF21367 (protein)
chain: QNLNKPVLFTDGLSPHVDSVFFQHLTPTQSTWDQWGWGWIPQACLSVVQGTQFSPYDIEVYNVHYTDCASAVVMCRHNQAQMSIINMIDAFGRVPIHDRQWTQHILALPASSCSAGTGGAVTTFYGPCYIPSVFVHELTHTLDAYVNDQTGSTGSVHVYSTTSSYLNSVNQDSCVPDGYANTSPQEDYAQTSVLALYEKVNPGGLDPIGNWRCLVNAKNNLDSIIGQELTPGGSCTHRWADSAIVCMGPAAGCASSKRGFSTRRGARVAGPKPEPANKKGDPLVSNLTPDLTSAVNAKIDDFSHLVSNHTASIEATIRINAWNKAAGKKTVPVPTA
B5: IFF21375 (protein)
chain: QTLDKPALTPNLDYLLQGNTDNLQPAASHYGKWEDGWIPADCKSIAEDQQLNPTDFEVYDVFYGDCGDAWSFCRHKSSSDSIDTIIDTFGRVPVRMRSWVRHVLTIPGDNWAFNSNGNIAFSGTTSQNLDVALHETGHSLDLLGAYGETLSSSQTWLDNYNQDPNVPDEYARSNQVENVAQNTVVGIYDKVVPGGFGSVQPNWGNIFHQYSTLQSMAKDTIIPGGTCDRHLANSETVSMASTQSNATRMARIRRVKPSHSFRQTYDNIVEGFTPFSTKDTCHFSWA
B6: IFF21363 (protein)
chain: QLDKPVIDPEFPSGALDQGLNDHLRAPGSSWDAWEEGWIPEDCKNMIEGTEFSVQDITPFNIHYDDCEDPWVFCRHKDSPLSEDYIVDAFGKMPVRFRSFVRHMLFVPGTESAGSSGDNVQMNGDLPITVFIHETAHSFDGHHGLPDIEGGFSASQAWLDAYNADSAVTDDYGQTSQAENFAQQTVVALFDSNVPDGVASIQPSWQSIENQFRLIQDRAADILRPDGTCTSRLENSAPVEKGGSARLRPSASTKPDVSLKGKIKVIEPVPMGAEMEMAQYDASGKVVGTKVVKVGGRE
B7: IFF21339 (protein)
chain: NLNKPVITPNFPGNGLASLGPGLMNNLAPTHSTWDDWGAGWIPSDCKSMVQGAGFSPNDIIPFNIHYDDCAQTWTFCRHKNSPLSEIQILDIFGRLPVRMRQFVRHLVFVPGNKSAGSNGDNVLMVGDVDVTVFAHEIGHSLDSHAFDSSYGVPFSTGNVWVSNYNLDSAVPDPYAQSSQQENFAQQTVVSLYDKVVPGGIGTIQPNWQAIFHQYATLEGYIGNVIIPGGTCTHRLTDSAPVTMSGSKKSRRALGPKPKVSLSPKVKEIEAIPMESSITMTSFDEHGKPNGTYVIHL
B8: IFF21336 (protein)
chain: B7 chain with P21Q, N25D, N26H, S44Q, S149P, L192I, I295V
B9: IFF21340 (protein)
chain: B7 chain with S44A, T73S, S149P, L192I, I295V
B10: IFF21337 (protein)
chain: B7 chain with P21Q, N25D, N26H, T73S, I87V, S149P, Q187E, V196A, N224D, I295V
B11: IFF21331 (protein)
chain: ALDKPIIDPEFPGGGLASLGQGLLDNLAPTQSTYADWEAGFIPQDCKTIAEGNSLSPLDIIPFNITYTDCSDPWIFCRHKDSPLSEVDMIDLFGRMPVGMRSFIRHIISIPGDKSAGSNGDNVQMNGDVDITVFIHETGHSLDSHGFDASYGVPFSTGQVWTDNYNLDSAVTDSYAQSSQQENFAQETVVALYDKVVPGGVGTIQPNWQAIQHQYETIQGYAGGIIIPGGTCTNRLPNSPAVPMSDSAKYRVNMAHKPDVSLSNYVTEIKSIPMEPIMKLTHYDAAGRPIGKSTIDLST
B12: IFF21335 (protein)
chain: TLDKPVIQPNFPGNGLASLGQGLLDNLAPTHSTWDDWGAGWIPQDCKTLVEGAGFSASDVIPFNIHYDDCAQTWTFCRHKDSPLSEVQILDLFGRLPVRMRSFVRHLVFIPGNKSAGSSGDNVLMTGPVDITVYAHEIGHSLDSHAFDPSYGVPFSTGNVWISNYNLDSAVTDPYAQTSQQENFAQETVVSLYDKVVPGGIGTIQSNWQAIFHQYATLEGYIGDVIIPGGTCTHRLTDSPAVPMSGSAKLRRGLGPKPHVALSPEVEEIEAIPMKSSITMTSFDEAGKPNGTYVINL
B13: IFF21365 (protein)
chain: DDTLSKPALTDNLDYLLDGNVASLPSNGGPYWGKWEDGLMPADCKSIAEDQGLNPTDFEVWDIFFDDCQDGWSFCRHKDSADSFETLVDTFGRVPVRMRSWVRHVLTIPGDNWAFNSNGNICFSGTTSQNLDVALHETGHSLDLLGAYGDGALSSSQEWLDAYNADSNVPDNYARSNQVENVAQNTVVAVYDKNVPGGFPGVQTDYAKIQNQYTLVEDKAGDQIVPGGTCDRHLENSETVPMSGSSAKRDIRIKGRAVGAGAVTHDWKFKGTYSNIVTDFEPFNSKDFHH
B14: IFF21364 (protein)
chain: QLDKPALTDNLDYLLDGNVANLPSNGGPYWGKWEDGLIPADCKSIAESQGLNPTDFEVYDIFFDDCQDGWSFCRHKDSSDSFETLVDTFGRVPVRMRSWVRHILTIPGNNWAFNSNGNIAFSGTTSSNLDVALHETGHSLDLLGAYGDGALSSSQEWEDAYNADSNVPDNYAQSNQVENVAQNTVVGIYDKVVPGGFPGVQPNYANIQNQYTLLQDKAGEQIIPGGTCDRHLENSDTVSMSGSSSKRDVRAAKARAASHDSALKGKYSNIVKDFKPFNSQDFHH
B15: IFF21349 (protein)
chain: VLDKPVIQPNFPGGGLDSLSQGLLDNLAPTQSTWDEWGAGWIPQDCKTLAEGSGFSALDITTFNIYYTDCADAWVFCRHKDAPLSEIDMIDLFGRMPVRMRDFVRHIIAVPGNPSAGSSGDNIQMNGGLPITVFVHETGHSLDSHAFSEPFSLSQAWIDAYNQDSAVPDSYAQTSQQENFAQETVVALYDKVVPGGVGTIQPNWNAIFHAYATLQGYIGDVIIPGGTCVNRLTNSAPVPQSNSAKVRIASEKPDVTLRGNVTVLESIPMGSSIELTHFDAEGKPTGRSTVNLG

Target: T1, IFF05588

| Protein | Relative late peak area (centered, scaled, averaged over 5, 10 and 15 min) | Relative late peak area (centered, scaled, averaged over doses, 24 h; sample diluted 1-fold) | Relative late peak area (reverse phase chromatography, 24 h) | Relative late peak area (centered, scaled, averaged over doses, 24 h; sample diluted 10-fold) | Relative late peak area (centered, scaled, averaged over doses, 24 h; sample diluted 2-fold) |
| --- | --- | --- | --- | --- | --- |
| B1 | -0.6 | 0.1 | 0.52 | – | – |
| B2 | -0.63 | 0.42 | – | – | – |
| B3 | -0.71 | -0.02 | 0.61 | – | – |
| B4 | -0.67 | 0.19 | – | – | – |
| B5 | 1.08 | – | 0.63 | 0.42 | – |
| B6 | -0.43 | – | 0.3 | – | -0.13 |
| B7 | -0.05 | – | – | – | 0.53 |
| B8 | -0.34 | – | – | – | 0.36 |
| B9 | -0.31 | – | 0.33 | – | 0.37 |
| B10 | 0.9 | – | – | 0.52 | – |
| B11 | -0.86 | -0.21 | – | – | – |
| B12 | 0.67 | – | 0.66 | 0.3 | – |
| B13 | 1.04 | – | 0.61 | 0.38 | – |
| B14 | -0.57 | – | 0.49 | – | -0.28 |
| B15 | 0.02 | – | – | – | 0.56 |
